Source: patent publication US10709761B2, “Methods and compositions for preventing or treating cancer” (UNIVERSITY OF UTAH RESEARCH FOUNDATION, priority 2015, dated 2020)

Experiments:
human fibroblasts = experiment: Caspase 3/7 cleavage after doxorubicin, human fibroblasts; format: cell-based; conditions: 10 μM and 30 μM doxorubicin
elephant fibroblasts = experiment: Caspase 3/7 cleavage after doxorubicin, elephant fibroblasts; format: cell-based, African elephant; conditions: 10 μM and 30 μM doxorubicin
[1] = tested on: African elephant lymphocytes; experiment: Annexin V / propidium iodide apoptosis after doxorubicin, elephant lymphocytes; format: cell-based; conditions: 5 μM doxorubicin, 18 and 24 hours
Description: Ionizing radiation (0.5, 2, 5, 6, 10, and 20 Gy) or doxorubicin (0.005-30 μM) were used to induce DNA damage in the cultured primary PBLs, which were then evaluated for signs of apoptosis, DNA repair efficiency, and cell cycle arrest. Apoptosis was evaluated by measuring the number of cells that stained for Annexin V (AV) and propidium iodide (PI); cells were categorized as being in late apoptosis if they were AV+PI+, and in early apoptosis if they were AV+PI−. Apoptosis was also measured either using APO-TOX GLO™ (Promega, Madison, Wis.) or CASPASE-GLO® 3/7 Assay (Promega) and […]-GLO® (Promega). The results were normalized to cell viability either using counts from the MULTI-TOX-FLUOR™ assay (Promega) included with APO-TOX GLO™, or using […]-GLO® when caspase activity was measured. Statistically significant differences in apoptosis were calculated in […] PRISM®.

U-2OS cells [2] = experiment: U-2OS cell viability after doxycycline induction; format: cell-based, human; conditions: 72 hours after induction with doxycycline
Description: U-2OS cells were also transfected with EP53^anc (SEQ ID NO: 2) and human TP53, and the cell viability after induction with doxycycline was observed after 72 hours.

[3] = tested on: p53 target genes, p21 and MDM2; experiment: Western blot of p53 pathway proteins in U-2OS cells expressing EP53^anc; format: cell-based, human
Description: For tetracycline inducible cells, the cells were treated with doxycycline for 24-48 hours prior to treatment with MG132 or doxorubicin. After the induction of DNA damage, the cells were harvested and pelleted. The cell pellets were frozen, and then lysed in cell lysis buffer containing phosphatase and protease inhibitors. The cell lysates were run on SDS-PAGE protein gels, and then transferred to PVDF membranes (western blots). The membranes were blocked, and then probed with primary antibodies to determine the p53 protein levels. The blots were probed with secondary HRP-conjugated antibodies, and the protein levels were detected using a substrate and a chemiluminometer. GAPDH was used as a loading control for each western blot. The blots were also probed for phosphorylated EP53^r at the serine-15 residue (phospho-EP53^r). DNA damage induces the phosphorylation of p53, which reduces the interaction of this protein with its negative regulator, mouse double minute 2 (MDM2) (Milczarek et al. Life Sci; 60: 1-11 (1997)).
(§1) U-2OS cells were also transduced with EP53^anc (SEQ ID NO: 2). These cells were then induced to express EP53^anc (SEQ ID NO: 3), and treated with doxorubicin to trigger DNA damage.

U-2OS cells [4] = experiment: Caspase activity / apoptosis in U-2OS cells expressing EP53 genes; format: cell-based, human; conditions: compared to empty vector
Description: U-2OS cells were transfected with EP53^r5 (SEQ ID NO: 12) or EP53 ancestral (EP53^anc) (SEQ ID NO: 2), and then treated with doxycycline to induce EP53^r expression. The cells were then treated with doxorubicin to damage the DNA.
as §1

U-2OS cells [5] = experiment: U-2OS caspase activity after doxycycline induction; format: cell-based, human; conditions: after induction with doxycycline
[6] = U-2OS induced to express, doxorubicin-treated

Molecule | caspase 3/7 cleavage (human fibroblasts) | caspase 3/7 cleavage (elephant fibroblasts) | early apoptosis (AV+PI−) [1] | late apoptosis (AV+PI+) [1] | cell viability (U-2OS cells [2]) | endogenous human p53 expression ([3]; U-2OS cells expressing EP53^anc) | p53 target genes, p21 and MDM2 (western blot) [3, 6] | increase in caspase activity (U-2OS cells [4]; [6]) | apoptosis (U-2OS cells [4]; U-2OS, absence of doxorubicin treatment) | caspase activity (U-2OS cells [5])
COc1cccc2c1C(=O)c1c(O)c3c(c(O)c1C2=O)C[C@@](O)(C(=O)CO)C[C@@H]3O[C@H]1C[C@H](N)[C@H](O)[C@H](C)O1 [doxorubicin] | 2.24 fold increase | 9.1 fold increase | significant increase | significant increase |  |  |  |  |  | 
EP53^anc: ancestral elephant TP53 gene (SEQ ID NO: 2) encoding elephant p53 protein (SEQ ID NO: 3), expressed from vector in cells (protein, listed as Loxodonta africana) MEEPQSDLSTELPLSQETFSYLWELLPENPVLSPTLPPAVEVMDDLLLSEDTANWLESQVEAQGMSTTPAPATPTPVAPAPATSWTLSSSVPSQKTYPGTYGFRLGFLHSGTAKSVTCTYSPDLNKLFCQLAKTCPVQLWVASPPPPGTRVRTMAIYKKSEHMTEVVKRCPHHERCSDSSDGLAPPQHLIRVEGNLRAEYLEDSITLRHSVVVPYEPPEVGSDCTTIHFNFMCNSSCMGGMNRRPILTIITLEDSSGNLLGRNSFEVRICACPGRDRRTEEENFHKKGEPCPEPPPPGRSTKRALPTNTSSSTQPKKKPLDEEYFTLQIRGRERFKMFLELNEALELKDAQAGKEPEGSRAHSSPSKSKKGQSTSRHKKPMFKREGPDSD |  |  |  |  | 35.6% | less | increase | 20 fold | significant apoptosis | 14.22%
